Reference: paper doi:10.1101/478511 (bioRxiv, 2018)

Biological target: WT His-BRCA1(1-500)-BARD1(27-327) heterodimer (UniProt P38398 1-500; Q99728 27-327)
Assay: pull-down

Chain of WT His-BRCA1(1-500)-BARD1(27-327) heterodimer (P38398 1-500, chain 1 of 2): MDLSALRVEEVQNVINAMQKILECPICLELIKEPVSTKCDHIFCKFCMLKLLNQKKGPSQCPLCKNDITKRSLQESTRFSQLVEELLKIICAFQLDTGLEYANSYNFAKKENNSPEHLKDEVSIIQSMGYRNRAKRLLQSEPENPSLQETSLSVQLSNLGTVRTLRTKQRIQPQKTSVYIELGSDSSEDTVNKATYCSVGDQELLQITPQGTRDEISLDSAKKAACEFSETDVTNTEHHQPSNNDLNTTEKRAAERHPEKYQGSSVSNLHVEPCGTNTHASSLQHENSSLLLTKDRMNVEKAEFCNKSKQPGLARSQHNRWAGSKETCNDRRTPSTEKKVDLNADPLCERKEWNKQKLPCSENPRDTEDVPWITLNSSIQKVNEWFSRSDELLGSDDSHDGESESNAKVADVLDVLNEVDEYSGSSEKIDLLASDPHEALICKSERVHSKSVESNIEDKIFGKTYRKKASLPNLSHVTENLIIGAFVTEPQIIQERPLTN
Chain of WT His-BRCA1(1-500)-BARD1(27-327) heterodimer (Q99728 27-327, chain 2 of 2): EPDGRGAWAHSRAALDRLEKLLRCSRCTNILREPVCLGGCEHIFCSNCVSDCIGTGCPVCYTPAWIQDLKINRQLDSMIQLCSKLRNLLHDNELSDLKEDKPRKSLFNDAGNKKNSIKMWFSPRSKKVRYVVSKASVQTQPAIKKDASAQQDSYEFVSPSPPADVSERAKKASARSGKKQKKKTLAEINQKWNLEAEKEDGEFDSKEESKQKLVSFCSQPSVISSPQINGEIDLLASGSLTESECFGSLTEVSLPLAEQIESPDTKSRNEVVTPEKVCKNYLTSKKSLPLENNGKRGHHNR

binding result: binds
B1: Human recombinant RAD51 (Abcam) (natural protein)
chain: MAMQMQLEANADTSVEEESFGPQPISRLEQCGINANDVKKLEEAGFHTVEAVAYAPKKELINIKGISEAKADKILAEAAKLVPMGFTTATEFHQRRSEIIQITTGSKELDKLLQGGIETGSITEMFGEFRTGKTQICHTLAVTCQLPIDRGGGEGKAMYIDTEGTFRPERLLAVAERYGLSGSDVLDNVAYARAFNTDHQTQLLYQASAMMVESRYALLIVDSATALYRTDYSGRGELSARQMHLARFLRMLLRLADEFGVAVVITNQVVAQVDGAAMFAADPKKPIGGNIIAHASTTRLYLRKGRGETRICKIYDSPCLPEAEAMFAINADGVGDAKD
